# Bridge positions count the residues as written; N and C are the ends. Square brackets hold non-standard residues; d marks the D form. Ends that are not written are not given here. pT = C[C@@H](OP(=O)(O)O)[C@H](N)C(=O)O; resin = not defined here
# Assays:
# Pin1 WW domain = target: T1, Pin1 WW domain (Homo sapiens, UniProt Q13526); assay: Competitive GST-WW pulldown of 32P-AICD; assay type: binding; conditions: increasing amounts of phosphopeptide
# T1 construct: made in house; host or cells: bacteria
# Description: For competitive binding assays, synthetic peptides, APPtide (EVDAAVp[…] (SEQ ID NO: 13), and its non-phosphorylated counterpart, were synthesized and purchased from Merck Co. The accuracy and purity were identified by mass spectroscopy. APPtide was dissolved in the binding buffer described in Lu et al., “A Function of WW Domains as Phosphoserine- or Phosphothreonine-binding Modules,” Science 283:1325-1328 (1999), which is hereby incorporated by reference in its entirety, and added into the GST pull down reaction for the competitive binding assay (Lu et al., “A Function of WW Domains as Phosphoserine- or Phosphothreonine-binding Modules,” Science 283:1325-1328 (1999), which is hereby incorporated by reference in its entirety).
# To identify the Pin1-binding site in APP, alanine was substituted for Thr668, the only Thr/Ser-Pro motif in the APP intracellular domain (“AICD”). […] AICD, but not AICD^T668A, was phosphorylated by Cdc2 (Suzuki et al., “Cell Cycle-dependent Regulation of the Phosphorylation and Metabolism of the Alzheimer Amyloid Precursor Protein,” Embo J 13(5): 1114-22 (1994), which is hereby incorporated by reference in its entirety).
# [1] = target: T2, pThr668-Pro motif in APP (21-residue phosphopeptide G659-Q679 of APP) (Homo sapiens, UniProt P05067); assay: NMR (ROESY) analysis of Pin1-catalyzed cis/trans isomerization of the pThr668-Pro bond; assay type: biochemical
# T2 construct: isomerization of the pThr668-Pro bond in a 21-residue phosphopeptide (G659-Q679 of APP); made in house; host or cells: peptide chemically synthesized; Pin1 recombinant (bacteria, as said in general terms)
# Description: All experiments were recorded at 25° C. on a Varian Inova 600 MHz spectrometer with the ^1H carrier set on water. ROESY data sets were acquired with spectral widths of 6 kHz (8 kHz) in t1 (t2) and 640 (2048) complex data points, and were processed as described in Ramelot & Nicholson, “Phosphorylation-induced Structural Changes in the Amyloid Precursor Protein Cytoplasmic Tail Detected by NMR,” J Mol Biol 307(3):871-84 (2001), which is hereby incorporated by reference in its entirety. Peak intensities were obtained using Pipp (Garrett et al., “A Common-sense Approach to Peak-picking in 2-Dimensional, 3-Dimensional, and 4-Dimensional Spectra Using Automatic Computer-analysis of Contour Diagrams,” J Magn Reson 95:214-20 (1991), which is hereby incorporated by reference in its entirety), and curve fits and error analyses were performed using SigmaPlot (Systat Software, Inc.). […] Ict/Icc=kct^cat[exp(kextm)−1]/[ktc^catexp(kextm)+kct^cat] Itc/Itt=ktc^cat[exp(kextm)−1]/[kct^catexp(kextm)+ktc^cat] where kex=kct^cat+ktc^cat, and tm corresponds to the ROESY mixing time. The desired rate constants were extracted by recording ROESY spectra with different mixing times and fitting the intensity ratios obtained to the above equations. ^15N—^1H HSQC data sets were acquired with spectral widths of 1.4 kHz (10 kHz) in t1 (t2) and 512 (2048) complex data points, and were processed as described in Ramelot & Nicholson, “Phosphorylation-induced Structural Changes in the Amyloid Precursor Protein Cytoplasmic Tail Detected by NMR,” J Mol Biol 307(3):871-84 (2001), which is hereby incorporated by reference in its entirety.
# In the ROESY spectrum, the intensities of exchange and diagonal peaks for a two-state isomerization reaction explicitly depend on the forward (“kct^cat”) and backward (“ktc^cat”) rate constants (FIG. 5B), and on the mixing time (“tm”).
# APP = target: T3, APP (Homo sapiens, UniProt P05067, T743A); assay: GST-Pin1 pulldown of APP and its mutants; assay type: binding; conditions: expressed in mitotic cells
# T3 construct: expressed in transfected cells; host or cells: N18 neuroblastoma cells transfected with HA-APP (from APP/pCMV)
# CHO cells = assay: Total Aβ secretion (ELISA) after co-transfection of Pin1 and APP751 in CHO cells; assay type: cell-based, Chinese hamster; conditions: Pin1 overexpression with APP751, asynchronous or mitotic cells
# CHO-APP cells = assay: Total Aβ secretion (ELISA) after Pin1 overexpression in CHO-APP cells; assay type: cell-based, Chinese hamster; conditions: asynchronous or mitotic cells
# [2] = linear sequence; cited from earlier work
# [3] = NMR (2D 1H-1H TOCSY and 1D 31P) determination of cis and trans populations of phosphopeptide; assay type: physicochemical; conditions: pThr-Pro bond, NMR on reaction mixture
# Source text: The cis conformation of the pThr-Pro motif in AICD is unique from the trans isomer in that it is stabilized by different hydrogen bonds, and it is more extended in backbone conformation, aside from the kink of the cis peptide bond (Ramelot & Nicholson, “Phosphorylation-induced Structural Changes in the Amyloid Precursor Protein Cytoplasmic Tail Detected by NMR,” J Mol Biol 307(3):871-84 (2001), which is hereby incorporated by reference in its entirety). It was hypothesized that the cis conformation could be stabilized by formation of a covalent bond between V667 NH and E670 COO— (hydrogen bonded in the NMR structure), thereby stabilizing the cis isomer relative to the trans. A 6-residue phosphopeptide corresponding to APP residues V667-R72 ([NH2]-V-pT-P-E-E-R-resin (SEQ ID NO: 1)) was commercially synthesized with an orthogonal blocking group on E4 (Tufts Core Facility), and sent on the resin. […] The spectra show two cis populations that most likely reflect different hydrogen bond geometries adopted in the cis isomer (Ramelot & Nicholson, “Phosphorylation-induced Structural Changes in the Amyloid Precursor Protein Cytoplasmic Tail Detected by NMR,” J Mol Biol 307(3):871-84 (2001), which is hereby incorporated by reference in its entirety).
# WW domain of Pin1 = WW domain of Pin1 (Homo sapiens, UniProt Q13526); assay: 15N-1H HSQC titration of {15N}-WW with peptide; assay type: binding; conditions: relative to linear pAICD
# Description: The pThr668-Pro peptides were synthesized, purified, and analyzed as reported in (Ramelot & Nicholson, “Phosphorylation-induced Structural Changes in the Amyloid Precursor Protein Cytoplasmic Tail Detected by NMR,” J Mol Biol 307(3):871-84 (2001), which is hereby incorporated by reference in its entirety). […] For ^15N—^1H HSQC experiments, ^15N-E670-pT668 peptide was dissolved in the same buffer adjusted to pH 6.7, with subsequent addition of an equimolar amount of the WW domain (0.2 mM). All experiments were recorded at 25° C. on a Varian Inova 600 MHz spectrometer with the ^1H carrier set on water. ROESY data sets were acquired with spectral widths of 6 kHz (8 kHz) in t1 (t2) and 640 (2048) complex data points, and were processed as described in Ramelot & Nicholson, “Phosphorylation-induced Structural Changes in the Amyloid Precursor Protein Cytoplasmic Tail Detected by NMR,” J Mol Biol 307(3):871-84 (2001), which is hereby incorporated by reference in its entirety. […]
# Natural abundance peptide (either the linear or cyclic pAICD peptide) was incrementally added to {^15N}-WW and peak shifts were monitored via ^15N—^1H HSQC spectra.
# Chain of WW domain of Pin1 (Q13526 5-39 limits assumed): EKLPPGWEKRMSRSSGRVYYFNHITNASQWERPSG
# T1 sequence (Q13526 5-39 limits assumed): as above
substance,measurement,setting,value
EVDAAVpTPEERHLS (SEQ ID NO: 13) (EVDAAV[pT]PEERHLS) [pThr668-containing APP peptide],competition of 32P-AICD binding to GST-WW,Pin1 WW domain,effectively competed
Pin1: peptidyl-prolyl isomerase that specifically isomerizes pSer/Thr-Pro bonds; GenBank Accession No. U49070,difference between kct^cat and ktc^cat rates,[1],10 fold
same,acceleration of pThr668-Pro isomerization rate over typical uncatalyzed isomerization rates for pThr-Pro peptides,"[1]; 3 mM peptide, 0.05 mM Pin1, 25° C.",several orders of magnitude
same,ROESY exchange cross peaks (E670-HN cis/trans),"[1]; catalytic amount of enzyme, 60:1 peptide:enzyme",exchange cross peaks were observed
same,average lifetime of the cis isomeric state,[1]; in presence of Pin1,~0.05 s
same,average lifetime of the trans isomeric state,[1]; in presence of Pin1,~0.5 s
same,acceleration of isomerization of the phosphorylated Thr668-Pro motif in APP,[1]; visualized by NMR,over 1000 fold
same,binding to APP^T668A mutant,APP,failed to bind
same,Aβ secretion,CHO cells,significantly reduced
same,Aβ secretion,CHO-APP cells,significantly reduced
"[NH2]-V-pT-P-E-E-R-resin (SEQ ID NO: 1) (H-V[pT]PEER-resin; not fully specified; printed as [NH2]-V-pT-P-E-E-R-resin; reading uncertain) [6-residue phosphopeptide, linear phosphopeptide corresponding to APP residues V667-R72]",cis conformation,[2],10%
same,trans conformation,[2],90%
cyclic pAICD: VpTPEER (SEQ ID NO: 1) phosphopeptide cyclized by covalent bond between V667 NH and E670 COO- (V[pT]PEER; lactam N-4),cis population,[3],~30%
same,trans population,[3],70%
same,WW domain peak shifts upon saturation with peptide,WW domain of Pin1,smaller peak shifts

# Source: patent US20080058276A1, “ALZHEIMER'S DISEASE THERAPEUTICS BASED ON PIN-1 CATALYZED CONFORMATIONAL CHANGES IN PHOSPHORYLATED AMYLOID PRECURSOR PROTEIN” (CORNELL RESEARCH FOUNDATION, INC., priority 2006, published 2008)
